Experiment [1] deals with GST-Src SH3 domain (UniProt P12931 84-145). As to the kind of experiment: GST pull-down, lysate in SDS containing RIPA buffer. The procedure:
(§1) In transient expression studies, with epitope tagged DOS constructs in both 293T cell and COS cells, a protein of the expected size is readily detected after cell lysis with buffers containing detergents, such as RIPA.
(§2) After incubating epitope tagged DOS lysates in SDS containing RIPA buffer with beads carrying GST-Crk-N terminal SH3 domain, DOS+SSB and DOS−SSB was “pulled down”. […] No binding to DOS−SSB was observed. […] The proline rich, C terminus of DOS engages with Src and Crk and the loss of Crk binding is seen in human cancer. Furthermore, no binding to SH3 domain of Abl and Crk-C terminus was observed.

For experiment [2], the target named is T1, DOS+SSB P>L (DOS+SSB with the proline to leucine mutation at amino acid 1718), epitope tagged (human, UniProt Q8N1I0 1-1966).
T1 construct: Used as lysate of transfected cells; also called DOS+SSB with proline mutation; DOS with the proline mutation
Described as above. Here is the method:
as §1, §2

Experiment [3] has as its target T2, DOS+SSB (human DOS protein of 1966 amino acids, with Src SH3 domain binding site), epitope tagged (human, UniProt Q8N1I0 1-1966).
T2 construct: Full-length isoform cloned in pcDNA3.1, transiently expressed in 293T or COS cells and used as cell lysate in RIPA buffer; also called DOCK 3; Deleted in Osteosarcoma
As to the kind of experiment: pull-down with SH3 domains. The procedure: as §1, §2

B1: DOS-SSB (alternatively spliced human DOS protein of 1928 amino acids, without Src SH3 domain binding site), epitope tagged (other, not shown: small tags and cut ends)
chain: MWIPTEHEKYGVVIASFRGTVPYGLSLEIGDTVQILEKCDGWYRGFALKNPNIKGIFPSSYVHLKNACVKNKGQFEMVIPTEDSVITEMTSTLRDWGTMWKQLYVRNEGDLFHRLWHIMNEILDLRRQVLVGHLTHDRMKDVKRHITARLDWGNEQLGLDLVPRKEYAMVDPEDISITELYRLMEHRHRKKDTPVQASSHHLFVQMKSLMCSNLGEELEVIFSLFDSKENRPISERFFLRLNRNGLPKAPDKPERHCSLFVDLGSSELRKDIYITVHIIRIGRMGAGEKKNACSVQYRRPFGCAVLSIADLLTGETKDDLILKVYMCNTESEWYQIHENIIKKLNARYNLTGSNAGLAVSLQLLHGDIEQIRREYSSVFSHGVSITRKLGFSNIIMPGEMRNDLYITIERGEFEKGGKSVARNVEVTMFIVDSSGQTLKDFISFGSGEPPASEYHSFVLYHNNSPRWSELLKLPIPVDKFRGAHIRFEFRHCSTKEKGEKKLFGFSFVPLMQEDGRTLPDGTHELIVHKCEENTNLQDTTRYLKLPFSKGIFLGNNNQAMKATKESFCITSFLCSTKLTQNGDMLDLLKWRTHPDKITGCLSKLKEIDGSEIVKFLQDTLDTLFGILDENSQKYGSKVFDSLVHIINLLQDSKFHHFKPVMDTYIESHFAGALAYRDLIKVLKWYVDRITEAERQEHIQEVLKAQEYIFKYIVQSRRLFSLATGGQNEEEFRCCIQELLMSVRFFLSQESKGSGALSQSQAVFLSSFPAVYSELLKLFDVREVANLVQDTLGSLPTILHVDDSLQAIKLQCIGKTVESQLYTNPDSRYILLPVVLHHLHIHLQEQKDLIMCARILSNVFCLIKKNSSEKSVLEEIDVIVASLLDILLRTILEITSRPQPSSSAMRFQFQDVTGEFVACLLSLLRQMTDRHYQQLLDSFNTKEELRDFLLQIFTVFRILIRPEMFPKDWTVMRLVANNVIITTVLYLSDALRKNFLNENFDYKIWDSYFYLAVIFINQLCLQLEMFTPSKKKKVLEKYGDMRVTMGCEIFSMWQNLGEHKLHFIPALIGPFLEVTLIPQPGLRNVMIPIFHDMMDWEQRRSGNFKQVEAKLIDKLDSLMSEGKGDETYRELFNSILLKKIERETWRESGVSLIATVTRLMERLLDYRDCMKMGEVDGKKIGCTVSLLNFYKTELNKEEMYIRYIHKLYDLHLKAQNFTEAAYTLLLYDELLEWSDRPLREFLTYPMQTEWQRKEHLHLTIIQNFDRGKCWENGIILCRKIAEQYESYYDYRNLSKMRMMEASLYDKIMDQQRLEPEFFRVGFYGKKFPFFLRNKEFVCRGHDYERLEAFQQRMLNEFPHAIAMQHANQPDETIFQAEAQYLQIYAVTPIPESQEVLQREGVPDNIKSFYKVNHIWKFRYDRPFHKGTKDKENEFKSLWVERTSLYLVQSLPGISRWFEVEKREVVEMSPLENAIEVLENKNQQLKTLISQCQTRQMQNINPLTMCLNGVIDAAVNGGVSRYQEAFFVKEYILSHPEDGEKIARLRELMLEQAQILEFGLAVHEKFVPQDMRPLHKKLVDQFFVMKSSLGIQEFSACMQASPVHFPNGSPRVCRNSAPASVSPDGTRVIPRRSPLSYPAVNRYSSSSLSSQASAEVSNITGQSESSDEVFNMQPSPSTSSLSSTHSASPNVTSSAPSSARASPLLSDKHKHSRENSCLSPRERPCSAIYPTPVEPSQRMLFNHIGDGALPRSDPNLSAPEKASPARHTTSVSPSPAGRSPLKGSVQSFTPSPVEYHSPGLISNSPVLSGSYSSGISSLSRCSTSETSGFENQVNEQSAPLPVPVPVPVPSYGGEEPVRKESKTPPPYSVYERTLRRPVPLPHSLSIPVTSEPPALPPKPLAARSSHLENGARRTDPGPRPRPLPRKVSQL
notes: Used as lysate of transfected cells
Turning to B1, the binding result in experiment [1] is recorded as “no binding”.

B2: GST-Crk-N terminal SH3 domain (other, UniProt P46108 132-192, looked up)
chain: EEAEYVRALFDFNGNDEEDLPFKKGDILRIRDKPEEQWWNAEDSEGKRGMIPVPYVEKYRP
notes: domain: N terminal SH3 domain; GST fusion on beads for the pull-down; also called adaptor protein Crk; not shown: glutathione S-transferase (GST) fusion partner
As for B2, in experiment [2], the binding result was “no binding”.

B3: SH3 domain of Crk-C terminus (other, UniProt P46108 235-296, looked up)
chain: NGPIYARVIQKRVPNAYDKTALALEVGELVKVTKINVSGQWEGECNGKRGHFPFTHVRLLDQ
notes: domain: SH3 domain of Crk-C terminus
As to B3, the binding result in experiment [3] is given as “no binding”.

The record behind these values is patent US20060041111A1 (published 2006).
